Key:
[1] = test system: E14 SD rat embryo primary dopaminergic neurons from the ventral mesencephalon; format: cell-based
Experimental: DNSP-11 treatment of Mesencephalic Cells: Timed pregnant SD rats (Harlan) were used to obtain the ventral mesencephalon from E14 fetuses. The dissected tissue was collected in cold Neurobasal™ medium and rinsed twice with cold Dulbecco's PBS. The cells were chemically (TrypLE®) and mechanically dissociated to yield a single cell suspension. The solution was centrifuged at 169 g for 6 minutes and the pellet was resuspended in Dulbecco's Modified Eagle Medium (DMEM). Cells were plated in a 25 μL micro-island at a density of 4000 cells/μL on poly-D-lysine coated 24-well plates (Sigma). Following adherence, cells were supplemented with warm NEUROBASAL™ media containing 2 mM glutamine, 1×N2, and 100 units of penicillin/streptomycin. Neurotrophic compounds were added at each media addition, including initial plating and DIV 2. A dose response of the peptides (0.03 ng to 10 ng/mL) was added to a 24-well plate following media supplementation.
The neurotrophic effects of DNSP-11 were studied by comparing its effects to the well-known effects of GDNF on the maintenance of primary mesencephalic cell cultures from E14 SD rat embryos. E14 SD rat embryo primary dopaminergic neurons from the ventral mesencephalon were grown for 5 days in vitro and neurotrophic molecules were added at each media change, including initial plating and day 2. […] These effects were similar to those observed for GDNF in these cells, including an increase in the size of TH+ neurons, which was not observed for DNSP-11 (Table 4).
In Table 1, cell survival and morphological parameters were quantified for control (citrate buffer) and experimental (0.1 ng/ml GDNF or 0.1 ng/ml DNSP-11) conditions. For morphology, five fields per well (minimum of 15 cells/field; 3-4 independent experiments) were photographed at 20× magnification and quantified using a Bioquant Image Analysis System. […] Soma size was not increased by the addition of DNSP-11. A one-way ANOVA was used to test for significance among groups, followed by a Newman-Keuls post hoc analysis. Significance between control and experimental conditions was determined at *p<0.05 and **p<0.01.

MN9D dopaminergic cells [2] = assay: TUNEL assay, protection against 6-OHDA toxicity; format: cell-based; settings: 1 ng/mL for 1 hour before 100 μM 6-OHDA for 15 min; at 24 h
Experimental: (§1) MN9D Cell Cultures: The MN9D cell line has been described by Choi (1991) Brain Res. 552:67-76 and was a gift from Michael Zigmond. Cells were cultured in DMEM supplemented with 10% Fetal Bovine Serum (FBS, Hyclone), 50 U/mL penicillin and streptomycin. For experiments, the cells were plated on 24-well poly-D-lysine in DMEM with 1% (v/v) penicillin-streptomycin. The cells were grown at 37° C. in 5% CO2.
Terminal dUTP Nick-End Labeling (TUNEL) Assay in MN9D Cells: After treatment with DNSP-11, MN9D cells were fixed and labelled to assess degenerative nuclear changes as indicated by the extent of high-molecular weight DNA strand breaks. DNA fragmentation was detected by using steptavidin-horseradish peroxidise conjugate followed by the substrate diaminobenzidine (DAB) generating a colored precipitate. Ratios between apoptotic and total cells were determined (4 random fields/well; 4 wells/ group). Experiments were repeated 3 times.
To evaluate DNSP-11's neuroprotective properties, DNSP-11 was compared to GDNF in its protection against 6-OHDA-induced toxicity in the dopaminergic cell line, MN9D. MN9D dopaminergic cells were incubated for 1 hour with either citrate buffer (control), 1 ng/mL of DNSP-11 or GDNF prior to 100 μM 6-OHDA exposure for 15 min. […]

MN9D dopaminergic cells [3] = assay: Caspase-3 activity assay, protection against 6-OHDA toxicity; format: cell-based; settings: 1 ng/mL for 1 hour before 100 μM 6-OHDA for 15 min; at 3 h
Experimental: as §1
Caspase-3 Activity Assay in MN9D Cells: MN9D cells were plated to 100,000 cells/well. Cell cultures were exposed to DNSP-11 (1 ng/mL) or buffer for 1 hour prior to 15 min 100 μM 6-OHDA exposure. Caspase-3 activity was monitored after 3 hours by fluorescence (excitation/emission 496/520 nm) using the Enz Chek Caspase-3 kit. Protein levels of lysed cells were measured by BCA assay (BioRad) and normalized for every experiment. Data expressed as % control and repeated a minimum of 3 times.
To evaluate DNSP-11's neuroprotective properties, DNSP-11 was compared to GDNF in its protection against 6-OHDA-induced toxicity in the dopaminergic cell line, MN9D. MN9D dopaminergic cells were incubated for 1 hour with either citrate buffer (control), 1 ng/mL of DNSP-11 or GDNF prior to 100 μM 6-OHDA exposure for 15 min. Data are +SD, one-way ANOVA with Tukey's post hoc analysis, *p<0.05, **p<0.01, ***p<0.001 vs. control; #p<0.05, ##p<0.01, ###p<0.001 vs. 6-OHDA.

GAPDH = GAPDH (Homo sapiens, UniProt P04406); assay: Gel filtration analysis of interaction between GAPDH and GDNF; format: binding; settings: equimolar solution, pre-equilibrated 1 h, Sephacryl S-200
Experimental: A gel filtration study was performed using a 120 mL Sephacryl S-200 column at a constant 1 mL/min flow rate. Individual 300 μM solutions of GAPDH (˜150 kDa; FIG. 14, dotted line) or GDNF (˜30 kDa; FIG. 14, dashed line) eluted at expected retention times for their sizes of 50 min (FIG. 14, star) and 64 min (FIG. 14, pound sign), respectively. When a pre-equilibrated (1 h), equimolar solution of GAPDH and GDNF was analyzed by gel filtration chromatography, two equally intense peaks were observed (FIG. 14, solid line) with retention times identical to the individual solutions.

Erk1/2 = assay: ERK1/2 activation by western blot; format: cell-based; settings: DNSP-11 0.1 uM or 1 uM or GDNF 50 ng/ml for 20 minutes
Experimental: MN9D and B65 cell were cultured in DMEM; 11995 (containing pyridoxol HCl; Sigma, St. Louis, Mo.) supplemented with 10% fetal bovine serum (HyClone, Logan, Utah), 50 U/mL penicillin and streptomycin with DNSP-11 (0.1 uM or 1 uM) or GDNF (50 ng/ml) for 20 minutes. The cells were then solubilized in Triton-X-100/glycerol lysis buffer and subjected to electrophoresis and western blotting as partially described previously (Jiang et al., Mol Biol Cell 14:859-70 (2003)). To detect phosphorylated Erk (#4377 Cell Signaling) and ERK (#4696 Cell Signaling) by immunoblotting, the cells were directly lysed in the sample loading buffer. Secondary IRDye 700X and IRDye800 conjugated, fluorescent antibodies (Rockland Inc.) were used to detect signal with Odyssey v3.0 scanning software. Several blots were analyzed to determine the linear range of the fluorescence signals, and quantifications were performed using densitometry analysis.

young and aged rats = settings: Hebert et al. 1996, 1997, cited from earlier work

Chain of GAPDH (P04406 2-335 limits assumed, species assumed): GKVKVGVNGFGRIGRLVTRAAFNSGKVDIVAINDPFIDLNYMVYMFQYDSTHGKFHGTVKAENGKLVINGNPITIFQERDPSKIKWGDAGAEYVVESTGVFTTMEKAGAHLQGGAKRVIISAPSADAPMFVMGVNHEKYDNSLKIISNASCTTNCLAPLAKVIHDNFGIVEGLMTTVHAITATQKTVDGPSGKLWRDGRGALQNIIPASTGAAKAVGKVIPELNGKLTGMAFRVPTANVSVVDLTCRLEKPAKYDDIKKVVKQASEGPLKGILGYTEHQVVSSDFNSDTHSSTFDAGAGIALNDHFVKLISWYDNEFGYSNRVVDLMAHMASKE

B1: GDNF: mature glial cell line-derived neurotrophic factor, homodimer of 32-42 kDa, comparator (protein, listed as Homo sapiens)
chain: SPDKQMAVLPRRERNRQAAAANPENSRGKGRRGQRGKNRGCVLTAIHLNVTDLGLGYETKEELIFRYCSGSCDAAETTYDKILKNLSRNRRLVSDKVGQACCRPIAFDDDLSFLDDNLVYHILRKHSAKRCGCI
modifications: homodimer
notes: mature glial cell line-derived neurotrophic factor, homodimer of 32-42 kDa, comparator
Cell survival ([1]; 0.1 ng/ml, 5 days in vitro, control 100): *158 ± 12 | Average branches per neuron ([1]; 0.1 ng/ml, controls 3.8 ± 0.2 (GDNF), 3.1 ± 0.2 (DNSP-11)): **4.7 ± 0.2 | Soma size (um^2) ([1]; 0.1 ng/ml, controls 171 ± 4 (GDNF), 168 ± 3 (DNSP-11)): 177 ± 4 um^2 | Combined neurite length (um) ([1]; 0.1 ng/ml, controls 242 ± 12 (GDNF), 222 ± 11 (DNSP-11)): **310 ± 16 um | TH+ neuron counts ([1]; 0.03, 0.1, 1.0 and 10 ng/ml): significantly increase | percent of TUNEL positive cells (MN9D dopaminergic cells [2]): significant reduction | caspase-3 activity (MN9D dopaminergic cells [3]): significant reduction | interaction with GAPDH in solution (GAPDH): does not interact | phosphorylation of Erk1/2 (ratio of phosphorylated to non-phosphorylated) (Erk1/2; B65 cells): elevated levels of activated Erk | phosphorylation of Erk1/2 (ratio of phosphorylated to non-phosphorylated) (Erk1/2; MN9D cells): elevated levels of activated Erk | augmentation of evoked release of dopamine (young and aged rats): over 100% | increase of basal levels of DOPAC (young and aged rats; young and aged rats): 20-25%
